Starred links: 1 amine or outer side, 2 acyl side, 3 side chain; linkers in the order of their positions; H or OH if unused. Positions of bridges follow the written chain, without caps; N, C: chain ends. Non-standard residues stand in square brackets, D forms with d. Primed or numbered codes have the meaning given here. PyrS2″ = (S)-3-amino-1-((pent-4-en-1-yloxy)carbonyl)pyrrolidine-3-carboxylic acid (stapling residue), C=CCCCOC(=O)N1CC[C@@](N[*:1])(C(=O)[*:2])C1; B5(5) = 2,2-bis(4-pentenyl)glycine, 2-amino-2-(pent-4-en-1-yl)hept-6-enoic acid (stitching residue), C=CCCCC(CCCC=C)(N[*:1])C(=O)[*:2]; PyrS2 = (S)-3-amino-1-((pent-4-en-1-yloxy)carbonyl)pyrrolidine-3-carboxylic acid, C=CCCCOC(=O)N1CC[C@@](N[*:1])(C(=O)[*:2])C1; B5(27) = 2-amino-2-(pent-4-en-1-yl)hept-6-enoic acid (two alkene side-chain arms), C=CCCCC(CCCC=C)(N[*:1])C(=O)[*:2]; F2PipAbu = (S)-2-amino-4-(4,4-difluoropiperidin-1-yl)butanoic acid, O=C([C@H](CCN1CCC(F)(F)CC1)N[*:1])[*:2]; MorphAsn = (S)-2-amino-4-morpholino-4-oxobutanoic acid, O=C(C[C@H](N[*:1])C(=O)[*:2])N1CCOCC1; Bta = N[C@@H](Cc1csc2ccccc12)C(=O)O; αAllylPro = C=CC[C@@]1(C(=O)O)CCCN1; tBuAla = CC(C)(C)C[C@H](N)C(=O)O; 3Thi = N[C@@H](Cc1ccsc1)C(=O)O; Cha = N[C@@H](CC1CCCCC1)C(=O)O; S8 = C=CCCCCCC[C@](C)(N)C(=O)O; PyrS2(4) = not defined here; hSer = N[C@@H](CCO)C(=O)O; Nle = CCCC[C@H](N)C(=O)O
T1: B-cat-Halo (beta-catenin HaloTag NanoBRET construct expressed in HEK293 cells) (UniProt P35222 1-781, HaloTag NanoBRET 618 Ligand bound to the HaloTag)
T1 sequence (looked up): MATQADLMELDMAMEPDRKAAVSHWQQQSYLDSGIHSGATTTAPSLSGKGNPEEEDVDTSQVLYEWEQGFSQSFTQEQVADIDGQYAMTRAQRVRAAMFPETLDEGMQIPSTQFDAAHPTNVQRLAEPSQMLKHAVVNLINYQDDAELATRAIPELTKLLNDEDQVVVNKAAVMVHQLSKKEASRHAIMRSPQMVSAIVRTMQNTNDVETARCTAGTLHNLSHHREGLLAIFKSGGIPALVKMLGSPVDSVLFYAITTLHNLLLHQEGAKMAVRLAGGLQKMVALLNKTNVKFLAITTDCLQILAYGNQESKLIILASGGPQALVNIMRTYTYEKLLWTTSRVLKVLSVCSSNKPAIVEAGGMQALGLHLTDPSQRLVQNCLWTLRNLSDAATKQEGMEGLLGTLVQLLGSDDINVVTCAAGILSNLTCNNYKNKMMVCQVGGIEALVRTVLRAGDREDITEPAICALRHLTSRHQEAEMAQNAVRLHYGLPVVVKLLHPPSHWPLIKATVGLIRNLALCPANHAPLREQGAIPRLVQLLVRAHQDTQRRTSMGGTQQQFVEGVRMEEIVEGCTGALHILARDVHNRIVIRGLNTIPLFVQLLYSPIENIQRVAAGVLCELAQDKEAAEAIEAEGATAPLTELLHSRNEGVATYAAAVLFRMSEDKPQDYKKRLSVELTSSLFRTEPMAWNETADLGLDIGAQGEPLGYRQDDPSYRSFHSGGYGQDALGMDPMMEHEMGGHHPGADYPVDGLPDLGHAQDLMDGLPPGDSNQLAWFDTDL


target: T1, B-cat-Halo (beta-catenin HaloTag …); experiment: cell-based or functional assay

Row | NanoBRET Abs IC50 | Binder
1 | 10.8 µM | Ac-[αAllylPro]D[Nle][B5(5)]DEAAF[hSer][S8]F[Bta]Q-NH2 (staple 1-4, 4-11) [I-1525: Ac-PL3-Asp-nLeu-B5-Asp-Glu-Ala-Ala-Phe-Hse-S8-Phe-BztA-Gln-NH2]
2 | > 20 µM | Ac-[αAllylPro]DT[B5(5)]DDAAFL[PyrS2″][3Thi][Bta][hSer]-NH2 (staple 1-4, 4-11) [I-1516: Ac-PL3-Asp-Thr-B5-Asp-Asp-Ala-Ala-Phe-Leu-PyrS2-3Thi-BztA-Hse-NH2]
3 | 5.8 µM | Ac-[αAllylPro]D[Nle][B5(5)]DEAAFQ[S8]F[Bta]Q-NH2 (staple 1-4, 4-11) [I-1522: Ac-PL3-Asp-nLeu-B5-Asp-Glu-Ala-Ala-Phe-Gln-S8-Phe-BztA-Gln-NH2]
4 | 6 µM | Ac-[αAllylPro]D[Nle][B5(5)]DEAAFQ[S8]F[Bta]Q-NH2 (staple 1-4, 4-11; also: staple isomer, earlier eluting HPLC peak) [I-1521: Ac-PL3-Asp-nLeu-B5-Asp-Glu-Ala-Ala-Phe-Gln-S8-Phe-BztA-Gln-NH2]
5 | 12.8 µM | Ac-[αAllylPro]D[Cha][B5(5)]DDAAFL[PyrS2″][3Thi][Bta]Q-NH2 (staple 1-4, 4-11) [I-1519: Ac-PL3-Asp-Cha-B5-Asp-Asp-Ala-Ala-Phe-Leu-PyrS2-3Thi-BztA-Gln-NH2]
6 | 31.8 µM | Ac-[αAllylPro]DF[B5(27)]DDAAFL[PyrS2][3Thi][Bta][hSer]-NH2 (staple 1-4, 4-11) [I-1510: Ac-PL3-Asp-Phe-B5-Asp-Asp-Ala-Ala-Phe-Leu-PyrS2-3Thi-BztA-Hse-NH2]
7 | > 20 µM | Ac-[αAllylPro]D[tBuAla][B5(27)]DDA[MorphAsn]FL[PyrS2][3Thi][Bta]Q-NH2 (staple 1-4, 4-11) [I-1507: Ac-PL3-Asp-Npg-B5-Asp-Asp-Ala-MorphAsn-Phe-Leu-PyrS2-3Thi-BztA-Gln-NH2]
8 | 8 µM | Ac-[αAllylPro]D[Nle][B5(5)]DEAAFL[S8]F[Bta]Q-NH2 (staple 1-4, 4-11) [I-1523: Ac-PL3-Asp-nLeu-B5-Asp-Glu-Ala-Ala-Phe-Leu-S8-Phe-BztA-Gln-NH2]
9 | > 20 µM | Ac-[αAllylPro]DN[B5(5)]DDAAFL[PyrS2″][3Thi][Bta]Q-NH2 (staple 1-4, 4-11) [I-1517: Ac-PL3-Asp-Asn-B5-Asp-Asp-Ala-Ala-Phe-Leu-PyrS2-3Thi-BztA-Gln-NH2]
10 | > 20 µM | Ac-[αAllylPro]DS[B5(5)]DDAAFL[PyrS2″][3Thi][Bta]Q-NH2 (staple 1-4, 4-11) [I-1513: Ac-PL3-Asp-Ser-B5-Asp-Asp-Ala-Ala-Phe-Leu-PyrS2-3Thi-BztA-Gln-NH2]
11 | 8.1 µM | Ac-[αAllylPro]D[Nle][B5(5)]DEAAF[hSer][S8]F[Bta]Q-NH2 (staple 1-4, 4-11; also: staple isomer, earlier eluting HPLC peak) [I-1524: Ac-PL3-Asp-nLeu-B5-Asp-Glu-Ala-Ala-Phe-Hse-S8-Phe-BztA-Gln-NH2]
12 | > 20 µM | Ac-[αAllylPro]DY[B5(5)]DDAAFL[PyrS2″][3Thi][Bta][hSer]-NH2 (staple 1-4, 4-11) [I-1512: Ac-PL3-Asp-Tyr-B5-Asp-Asp-Ala-Ala-Phe-Leu-PyrS2-3Thi-BztA-Hse-NH2]
13 | > 20 µM | Ac-[αAllylPro]DY[B5(27)]DDAAFL[PyrS2][3Thi][Bta]Q-NH2 (staple 1-4, 4-11) [I-1511: Ac-PL3-Asp-Tyr-B5-Asp-Asp-Ala-Ala-Phe-Leu-PyrS2-3Thi-BztA-Gln-NH2]
14 | > 20 µM | Ac-[αAllylPro]DT[B5(5)]DDAAFL[PyrS2″][3Thi][Bta]Q-NH2 (staple 1-4, 4-11) [I-1515: Ac-PL3-Asp-Thr-B5-Asp-Asp-Ala-Ala-Phe-Leu-PyrS2-3Thi-BztA-Gln-NH2]
15 | > 20 µM | Ac-[αAllylPro]D[tBuAla][B5(27)]DDA[F2PipAbu]FL[PyrS2][3Thi][Bta]Q-NH2 (staple 1-4, 4-11) [I-1505: Ac-PL3-Asp-Npg-B5-Asp-Asp-Ala-F2PipAbu-Phe-Leu-PyrS2-3Thi-BztA-Gln-NH2]
16 | 24.5 µM | Ac-[αAllylPro]DF[B5(5)]DDAAFL[PyrS2(4)][3Thi][Bta]Q-NH2 (staple 1-4, 4-11; not fully specified; printed as I-1509: Ac-PL3-Asp-Phe-B5-Asp-Asp-Ala-Ala-Phe-Leu-PyrS2-3Thi-BztA-Gln-NH2; reading uncertain) [I-1509: Ac-PL3-Asp-Phe-B5-Asp-Asp-Ala-Ala-Phe-Leu-PyrS2-3Thi-BztA-Gln-NH2]

Reference: patent US20240116985A1 (published 2024)
